Reference: the supplement of paper PMC10724198
± gives the standard deviation of the averaged measurements.

Tested on: Saccharomyces cerevisiae
Experiment: protein stability index of tFT-peptide fusion (C-terminal peptide) (PSI (0-1 scale)); higher = more stable (slower turnover)
Details: genetic background: wild type; temperature: 30 C
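Note: PSI is a weighted mean of sequencing reads over stability bins, variants kept only with over 10 reads, mCherry proximal and sfGFP distal, peptide attached via GGGS linker.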

Row | Sequence | protein stability index
1 | SDKDIYQRLSYE | 0.643 ± 0.036
2 | SDSAPSPPAFLP | 0.6569 ± 0.0025
3 | SDVKFGFCGVAS | 0.655 ± 0.028
4 | SEAFDSSARRAL | 0.541 ± 0.043
5 | SEEGMGRCSDEE | 0.731 ± 0.028
6 | SEFKLVVGSRSD | 0.715 ± 0.032
7 | SEGKQYITGRWK | 0.702 ± 0.084
8 | SELRFALCPAFL | 0.666 ± 0.019
9 | SERPVPTSISLR | 0.682 ± 0.0069
10 | SERRVKKIEEQI | 0.77 ± 0.084
11 | SERYFFFQCGPH | 0.6802 ± 0.0033
12 | SETGSGGLFSLP | 0.693 ± 0.018
13 | SEVIIAISNKNH | 0.5275 ± 0.0019
14 | SFACLLGRGWVD | 0.719 ± 0.06
15 | SFADFVFMDHCA | 0.696 ± 0.062
16 | SFAKHRNASMGR | 0.691 ± 0.04
17 | SFERPAQAHALA | 0.698 ± 0.012
18 | SFGSPLFFFPFL | 0.736 ± 0.036
19 | SFIGEDHQCVFY | 0.723 ± 0.013
20 | SFILRRISSAIS | 0.645 ± 0.014
21 | SFISPFFCTRPV | 0.638 ± 0.012
22 | SFLFWFFASGWL | 0.56 ± 0.047
23 | SFLHLLCSFVLL | 0.51 ± 0.039

Row | Sequence | protein stability index
24 | SFMPFVLPLSSP | 0.71 ± 0.023
25 | SFPGVRHSTSDS | 0.676 ± 0.017
26 | SFPYPHRDLVTP | 0.7114 ± 0.0016
27 | SFSLAPSPPLLP | 0.721 ± 0.042
28 | SFSSLVLSSCFW | 0.706 ± 0.026
29 | SGDSVAVGVTGT | 0.689 ± 0.056
30 | SGDVGGGHWVGG | 0.729 ± 0.013
31 | SGFLPPRFLSPS | 0.6895 ± 0.0012
32 | SGFPSCFRPSFY | 0.702 ± 0.021
33 | SGFRALWGLFAL | 0.683 ± 0.014
34 | SGFYQNTCSSLV | 0.756 ± 0.12
35 | SGGAGGSCMRYV | 0.704 ± 0.022
36 | SGGGGGWQEEAG | 0.662 ± 0.027
37 | SGGIPGSPNVRL | 0.657 ± 0.01
38 | SGGRLVVCEGPG | 0.65 ± 0.087
39 | SGGRRRAGKGAT | 0.69 ± 0.049
40 | SGGVLSNGRLAA | 0.684 ± 0.052
41 | SGHRLTYEFFPT | 0.741 ± 0.074
42 | SGLFFRWCRLSW | 0.638 ± 0.031
43 | SGLFGDAVPCCV | 0.632 ± 0.03
44 | SGNYRGGLTVFS | 0.711 ± 0.023
45 | SGPGPGAVGATC | 0.702 ± 0.057
46 | SGPTFRWAGVLC | 0.593 ± 0.014

Row | Sequence | protein stability index
47 | SGRGVEVGGEGE | 0.752 ± 0.053
48 | SGRIHLLHSPWV | 0.712 ± 0.052
49 | SGRMAIYVFGVV | 0.579 ± 0.01
50 | SGSMHWTDPPGS | 0.6747 ± 0.0051
51 | SGSVLHEFILVV | 0.543 ± 0.028
52 | SGTLYELNAVVV | 0.644 ± 0.016
53 | SGTPTFTPSYPS | 0.717 ± 0.026
54 | SGTVRRQCGNPD | 0.69752 ± 0.00027
55 | SGVALFFFPPLL | 0.71 ± 0.039
56 | SGVGLAETAGDD | 0.68 ± 0.027
57 | SGVGSRDGVRGA | 0.684 ± 0.048
58 | SGYCCDGCKGSY | 0.6461 ± 0.0028
59 | SHAATKGSLFNV | 0.631 ± 0.0074
60 | SHEARMVCGSSV | 0.63331 ± 0.00024
61 | SHLLPPPLTPAS | 0.673 ± 0.031
62 | SHLMETPACSAP | 0.915 ± 0.082
63 | SHPLTLPSLLPP | 0.717 ± 0.045
64 | SHRRLPPSRFYR | 0.7 ± 0.081
65 | SHSTNNHKLTPR | 0.677 ± 0.082
66 | SHSTPAFPLPPP | 0.638 ± 0.068
67 | SHVDRVVFWYLL | 0.529 ± 0.033
68 | SHVLPHPGLSPP | 0.655 ± 0.061
69 | SHVMLCLHFLFR | 0.498 ± 0.018

Row | Sequence | protein stability index
70 | SHVVDAPYRSEG | 0.66601 ± 0.00013
71 | SINLLFHSFFFL | 0.608 ± 0.047
72 | SIPAPLAPLWGL | 0.627 ± 0.055
73 | SIPVPFSFPLFI | 0.598 ± 0.0065
74 | SIQVFDTYIITD | 0.697 ± 0.068
75 | SIRGLRTLKFLG | 0.6739 ± 0.0049
76 | SIRNNMKRVRKN | 0.631 ± 0.022
77 | SISFPPPPRSLT | 0.719 ± 0.08
78 | SIWLLSGGQCFL | 0.684 ± 0.027
79 | SKERLKSEKMKK | 0.745 ± 0.059
80 | SKGQLRLNMCIL | 0.662 ± 0.046
81 | SKKKKNLQIPKK | 0.734 ± 0.12
82 | SKKTSRSKVHTS | 0.685 ± 0.069
83 | SLALSSPLPPPP | 0.735 ± 0.042
84 | SLALVATWCGYR | 0.688 ± 0.052
85 | SLASWLCVFSWD | 0.673 ± 0.027
86 | SLCTFSFLRFGF | 0.738 ± 0.015
87 | SLCTSVPEPPFS | 0.687 ± 0.0072
88 | SLDLSQPMPWYH | 0.711 ± 0.051
89 | SLDQGSSSLFIM | 0.731 ± 0.082
90 | SLEFISIAFLDL | 0.685 ± 0.042
91 | SLEQRPLQRPPS | 0.6941 ± 0.0063
92 | SLFALPLPPPAQ | 0.695 ± 0.025

Row | Sequence | protein stability index
93 | SLFFPLPLSSLF | 0.736 ± 0.07
94 | SLFHTSLAYSFF | 0.7143 ± 0.0066
95 | SLFLSRRSLYRV | 0.738 ± 0.034
96 | SLFLVLSLAQLL | 0.579 ± 0.066
97 | SLFPAGWAGFSD | 0.73 ± 0.011
98 | SLFRGHLLPPRP | 0.688 ± 0.036
99 | SLIPLLPPRSLS | 0.594 ± 0.1
100 | SLKIHIKQIEKK | 0.766 ± 0.022
101 | SLLILMYHIAPF | 0.53 ± 0.03
102 | SLLLPPRPPCPP | 0.737 ± 0.024
103 | SLLLRVLCGRLS | 0.5104 ± 0.0037
104 | SLLPHAHAPSPL | 0.673 ± 0.014
105 | SLLPHSPLLPPP | 0.694 ± 0.0031
106 | SLLPQSAGRRPH | 0.666 ± 0.063
107 | SLLPRLTPHSPI | 0.75 ± 0.051
108 | SLLSTPPPLASP | 0.669 ± 0.039
109 | SLPALPPLGLFS | 0.71 ± 0.017
110 | SLPCPISPPSFL | 0.697 ± 0.018
111 | SLPLHFISGFYV | 0.6586 ± 0.0043
112 | SLPLPPCLSPLQ | 0.723 ± 0.054
113 | SLPLPVFSFPCS | 0.653 ± 0.00069
114 | SLPLSSALFPPL | 0.72 ± 0.076
115 | SLPPALPLPLSH | 0.64 ± 0.06

Row | Sequence | protein stability index
116 | SLPPPPCLPPLT | 0.675 ± 0.044
117 | SLPPSFPPPFLF | 0.7355 ± 0.001
118 | SLRNGESTGLCF | 0.743 ± 0.098
119 | SLRPALSFLPLP | 0.716 ± 0.054
120 | SLSCDITRFVEY | 0.712 ± 0.19
121 | SLSHSPSPPPPT | 0.638 ± 0.0084
122 | SLSPWRLPIGGW | 0.708 ± 0.033
123 | SLSSAPPIPPTL | 0.697 ± 0.011
124 | SLSSRSVSLFKF | 0.806 ± 0.13
125 | SLSTAEAHGRRS | 0.72 ± 0.082
126 | SLSTLVFSFCVL | 0.517 ± 0.03
127 | SLSVRTIFTSRS | 0.71 ± 0.071
128 | SLTEAVHWDRIS | 0.67 ± 0.032
129 | SLTLAHPGVDLA | 0.709 ± 0.021
130 | SLTTPGMSQAYY | 0.703 ± 0.034
131 | SLVSTSRALFAQ | 0.659 ± 0.019
132 | SLVSWAGLLFWG | 0.727 ± 0.058
133 | SLWVLPGPVVLG | 0.621 ± 0.039
134 | SLWVSLSCFRVV | 0.588 ± 0.028
135 | SMAPDIQLYTAS | 0.68901 ± 0.0006
136 | SMEVRGLKVRSC | 0.617 ± 0.015
137 | SMFFNSIDATRW | 0.721 ± 0.053
138 | SMGLYRDVVSGH | 0.665 ± 0.029

Row | Sequence | protein stability index
139 | SMKAYRTLKTRL | 0.636 ± 0.075
140 | SMWNFPRLAKTR | 0.685 ± 0.018
141 | SNACHTTFGDPI | 0.719 ± 0.0078
142 | SNAFWVRPFKIG | 0.667 ± 0.013
143 | SNCLKHAYTTRT | 0.6604 ± 0.0056
144 | SNTVSRAPFLLA | 0.681 ± 0.15
145 | SNWGLYGCRLYP | 0.759 ± 0.073
146 | SPAASPSRPPPI | 0.648 ± 0.025
147 | SPAGQRPQVPVS | 0.667 ± 0.075
148 | SPALPPPAPRLL | 0.719 ± 0.061
149 | SPALSPCLRTGY | 0.717 ± 0.062
150 | SPAPQLFLPPPV | 0.665 ± 0.052
151 | SPCLLTLPVPFL | 0.695 ± 0.017
152 | SPCLTRSALPSP | 0.687 ± 0.038
153 | SPCVPTPSRPAS | 0.685 ± 0.079
154 | SPDFSVITKSYL | 0.764 ± 0.032
155 | SPDGVEILPIRG | 0.684 ± 0.017
156 | SPEFIQAIQNPV | 0.724 ± 0.049
157 | SPEVIHVVFCDL | 0.697 ± 0.043
158 | SPFEASSPQVLT | 0.644 ± 0.0094
159 | SPFLSLPHPSFP | 0.6053 ± 0.0013
160 | SPFRATPYPLLP | 0.6909 ± 0.0031
